Data taken from PMC3173486.

Key:
[1] = molecular target: HA of A/swine/Netherlands/1/87 (H1N1) (influenza A virus A/swine/Netherlands/1/87 (H1N1))
[2] = molecular target: HA of most H1N1 viruses
[3] = molecular target: HA of human-derived H3N2 strains
[4] = molecular target: HA of swine H3N2 viruses
[5] = molecular target: HA of avian H3N2 viruses
[6] = molecular target: HA of the 2009 pandemic H1N1 strains, California/4/09 and Netherlands/602/09
[7] = molecular target: HA of all influenza A/H1N1 viruses tested with RpSP-D multimers and trimers

“RpSP-D trimers (from UniProt Q9N1X4 21-378) (natural protein)” gave an HI assay: minimal inhibitory concentration of RpSP-D trimers; not inhibited [1] of over 1600 ng/100 µl.

B1: recombinant human SP-D, P35247 21-375 (natural protein)
chain: AEMKTYSHRTMPSACTLVMCSSVESGLPGRDGRDGREGPRGEKGDPGLPGAAGQAGMPGQAGPVGPKGDNGSVGEPGPKGDTGPSGPPGPPGVPGPAGREGPLGKQGNIGPQGKPGPKGEAGPKGEVGAPGMQGSAGARGLAGPKGERGVPGERGVPGNTGAAGSAGAMGPQGSPGARGPPGLKGDKGIPGDKGAKGESGLPDVASLRQQVEALQGQVQHLQAAFSQYKKVELFPNGQSVGEKIFKTAGFVKPFTEAQLLCTQAGGQLASPRSAAENAALQQLVVAKNEAAFLSMTDSKTEGKFTYPTGESLVYSNWAPGEPNDDGGSEDCVEIFTNGKWNDRACGEKRLVVCEF
In the case of B1, the HI assay: minimal inhibitory concentration of RhSP-D; failed to inhibit [2] is reported as over 7500 ng/100 µl.

B2: recombinant porcine SP-D, Q9N1X4 21-378 (natural protein)
chain: AEMKTYSQRAVANACALVMCSPMENGLPGRDGRDGREGPRGEKGDPGLPGAVGRAGMPGLAGPVGPKGDNGSTGEPGAKGDIGPCGPPGPPGIPGPAGKEGPSGQQGNIGPPGTPGPKGETGPKGEVGALGMQGSTGARGPAGLKGERGAPGERGAPGSAGAAGPAGATGPQGPSGARGPPGLKGDRGPPGERGAKGESGLPGITALRQQVETLQGQVQRLQKAFSQYKKVELFPNGRGVGEKIFKTGGFEKTFQDAQQVCTQAGGQMASPRSETENEALSQLVTAQNKAAFLSMTDIKTEGNFTYPTGEPLVYANWAPGEPNNNGGSSGAENCVEIFPNGKWNDKACGELRLVICEF
For B2, the HI assay: minimal inhibitory concentration of RpSP-D [3] was 11 ng/100 µl, the HI assay: minimal inhibitory concentration of RpSP-D [4] was 51 ng/100 µl and the HI assay: minimal inhibitory concentration of RpSP-D [5] was 14.6 ng/100 µl. For the same molecule, the HI assay: average inhibitory concentration of RpSP-D [6] was 304 ng/100 µl.

B3: RpSP-D multimers (natural protein)
chain: B2 chain
In the case of B3, the HI assay: average minimal inhibitory concentration of RpSP-D multimers [7] is reported as 39.8 ng/100 µl.

B4: RpSP-D trimers (natural protein)
chain: B2 chain
Molecule B4 has an HI assay: average minimal inhibitory concentration of RpSP-D trimers [7] of 602 ng/100 µl.
